B1: E. coli MtlR fused with His6-tag (ecHisMtlR), wild type [E. coli] / E. coli histidine phosphocarrier protein HPr (dephosphorylated, untagged) [E. coli] (parent complex)
chain 1: MVDQAQDTLRPNNRLSDMQATMEQTQAFENRVLERLNAGKTVRSFLITAVELLTEAVNLLVLQVFRKDDYAVKYAVEPLLDGDGPLGDLSVRLKLIYGLGVINRQEYEDAELLMALREELNHDGNEYAFTDDEILGPFGELHCVAALPPPPQFEPADSSLYAMQIQRYQQAVRSTMVLSLTELISKISLKKAFQK
chain 2: not shown

Variants of: B1
Assay: His-tag pull-down (Talon metal affinity chromatography), SDS-PAGE band densitometry; 200 μg His-MtlR, 200 μg HPr; 20 mM Tris-HCl (pH 7.5), 50 mM NaCl, 2 mM β-mercaptoethanol, 5% glycerol; wash 10 mM imidazole, elution 150 mM imidazole

Variant	percent of parent [%]
chain 1 A115W	45
chain 1 E108S	76
chain 1 E140S	67
chain 1 L112W	95
chain 1 L112A	47

Variants of: B1
Assay: His-tag pull-down (Talon metal affinity resin), SDS-PAGE band densitometry; 200 μg His-MtlR, 200 μg HPr, 20 μl EI-overproducing cell lysate, 2 mM MgCl2, 50 μl Talon resin; no PEP

Variant	percent of parent [%]
chain 1 E108S	65
chain 1 E108S, chain 1 E140S	35
chain 1 E140S	68
